According to the DeepSol protein solubility set:

Test: soluble on expression in E. coli; label from the status in PepcDB or PDB records

| Sequence | soluble on expression in E. coli |
| --- | --- |
| MSLKILVVGPSWVGDMMMSQSLYRTLRARYPQAIIDVMAPAWCRPLLSRMPEVNEAIPMPLGHGALAIGERRKLGHSVRERRYDRAYVLPNSFKSALVPFFANIPLRTGWRGEMRYGLLNDARVLDKDAWPLMVERYVALAYDNGVMRCAKDLPQPLVWPQLQVNEGEKSQACSAFNLSNDRPIIGFCPGAEFGPAKRWPHYHYAALAKKLIDDGYQIALFGSAKDNEAGKEIIAAISSEQQAWCRNLAGETQLEQAVILIAACKAVVTNDSGLMHVAAALDRPLVALYGPSSPDFTPPLSHKARVIRLITGYHKVRKGDAAEGYHQSLIDITPERVLQELNELLAEKTEHEEAEGGSHHHHHH | soluble |
| MSLKIRSITATPINLRLEAPYGWVFGELDGFSQTIVEVETEDGLIGLGEAPTPAAAAIINDVLAERLVGRDAFDIAGAEHVCLPYWTGVQSINDRTRIMAFGAIEMALWDLRGKAWNQPLYQLLGGAVRKDIPFTDYFSLRGDGPKVKGETTPEEVADYCVELHETHGTTFFEGKFSTEDPKVSLRMVELIRAKLGDEAMIRIDSNQAYSLATARRLARPLEELGVRNWEDPVATIEEMRQLRQHCSIPFSTHNIDIARAMDLKVPDAFVGNPTAHGGIGRLLRFVGACEHAGVDFWCYSGDSGIGSAAYLHLCAALGWIREPNQSLFRMQPMDITEEGPFSPRNNVVRVPEGPGLGVTLSRKNLAACHRDFAENGPCNKYHDPAKPGTYRRLPLNEGHHHHHH | soluble |
| MSLKITGLRTRRIHIPFDKPIGTSIHRIEGVSGLLVWLDTDEGITGESYLWAIGRHRVPVLESIVRMLGERAIGKDPRDTTARFDEMWTEINFLGHKGVSLFGIAAIDWACWDILGQSLGASVSRLLGRRRDRVTAYASGGLWASMTIPELEAQARDFVAQGFTAVKMRIGKPDIGEDIERVAAVRSAIGSRIKLMADANQGLSVNHAIRLGRKLETFDLVWFEEPVQAYDLEGSARVAAEIDTPIASGETEYGRYGFRDMLERKSADVLMPDLERVGGVTEWVRVAHMAAAYDVPVSPHIFSEHSLQLCGAISNVNYAEHMPWFAELFQERLEMVDGDLLIPDRPGMGFRFDPDAVERYADEGHHHHHH | soluble |
| MSLKITHVEVHRIDVPAASPPFRWRDGLSGSAPVGDGAVLHIGTDEGAEGVSVFARPGAYSTLRDLVDRVFRAELVGADPFQREWLWHRVWELDRIHELPLPTLGLIDIALWDLAGRYHGEPVWRLLGGFREAIPAYASTSTFSSVAEFLDVADQCLALGYRGIKLHAWGDARRDAELCLALRDHVGPDVPLMYDGSAGFDLPDAIRLGRALSEADYLWYEEPIREFSISAYQRLAEAVDVPLLVAETSDGAHMNAADFIRAGAATFGVRAGTTLRGGITGAMRTAHLADAFRLRAEVHGSDIPNHHLCMAISNTTYYESLVTSVNVVRERHVDDQGLVHAPAGPGIALPLDFGYGNELLPFVEQPREGHHHHHH | soluble |
| MSLKIVLIAPYRDLLETAITVKKDLNVDIELELGDLSEGVKVAREWEKKGVDIIISRGGTYQLIKESVSVPVVEIKVSAFDILRQFNGLIGCKEIIGVAGYKNVIYGCEVIGEILDLNLIKVVIEKEEEGLRQVAAAKEKGVSLIIGDTIGAYSAKRLGLKSRLITSGKEAVAAAVSESFRLAQALKAEKEKAEQIRTIVDFVHDGIIAIDKEGRVSIYNRMAEKIFKRPPAEAVGRKVETVVPNTRLYEVIETGKPQIGELQEVLGTMITTNRVPIVVGNEVVGAVATFQDVTMLQKVEQKIRRQLADRGLVAMYTFDEGHHHHHH | soluble |
| MSLKKIGVLGMGYVGIPAAVLFADAPCFEKVLGFQRNSKSSGYKIEMLNRGESPLKGEEPGLEELIGKVVKAGKFECTPDFSRISELDAVTLAIQTPFANPKDLEPDFSALIDGIRNVGKYLKPGMLVVLESTITPGTTEGMAKQILEEESGLKAGEDFALAHAPERVMVGRLLKNIREHDRIVGGIDEASTKRAVELYSPVLTVGQVIPMSATAAEVTKTAENTFRDLQIAAINQLALYCEAMGINVYDVRTGVDSLKGEGITRAVLWPGAGVGGHCLTKDTYHLERGVKIGRGELDYPEGADSIYVLARKVNDFMPAHMYNLTVAALERLGKKMDGSKVAMLGWAFIKDSDDARNTPSEPYRDLCLKAGASVMVHDPYVVNYPGVEISDNLEEVVRNADAIVVLAGHSAYSSLKADWAKKVSAKANPVIIDGRNVIEPDEFIGKGFVYKGIGREGHHHHHH | not soluble |
| MSLKKLISGIIAVAMALSLAACQKETKVISLSGKTMGTTYHVKYLDDGSITATSEKTHEEIEAILKDVNAKMSTYKKDSELSRFNQNTQVNTPIEISADFAKVLAEAIRLNKVTEGALDVTVGPVVNLWGFGPEKRPEKQPTPEQLAERQAWVGIDKITLDTNKEKATLSKALPQVYVDLSSIAKGFGVDQVAEKLEQLNAQNYMVEIGGEIRAKGKNIEGKPWQIAIEKPTTTGERAVEAVIGLNNMGMASSGDYRIYFEENGKRFAHEIDPKTGYPIQHHLASITVLAPTSMTADGLSTGLFVLGEDKALEVAEKNNLAVYLIIRTDNGFVTKSSSAFKKLTETKEEGGSHHHHHH | soluble |
| MSLKKLIVLTCTLSLLTACGDSIEKKAGEKLAAARAAFEHNDYNEAKLQIDSIKILYPKAFDTRKEGIKLMQQVELKEQQESLVYLDSMLQVKQEEFEAIKNKYTFEKNEEYQKIGNYFWPTQTVEKNLHRSFLRFQVNEQGVMTLTSIYCGPSNIHHVAVKVIAPDGSFAETPASNDSYETTDLGEKIEKADYKMGEDGNVLSFLYMNRDKKNIRVEYLGERKFSTTMTPSDREALVGTYELAKLLSSIRQIQQEKEEANLKIEFVKRKMEQKAQEEAAEKEGHHHHHH | soluble |
| MSLKKLRIGVVGLGGIAQKAWLPVLAAASDWTLQGAWSPTRAKALPICESWRIPYADSLSSLAASCDAVFVHSSTASHFDVVSTLLNAGVHVCVDKPLAENLRDAERLVELAARKKLTLMVGFNRRFAPLYGELKTQLATAASLRMDKHRSNSVGPHDLYFTLLDDYLHVVDTALWLSGGKASLDGGTLLTNDAGEMLFAEHHFSAGPLQITTCMHRRAGSQRETVQAVTDGALIDITDMREWREERGQGVVHKPIPGWQSTLEQRGFVGCARHFIECVQNQTVPQTAGEQAVLAQRIVDKIWRDAMSEEGGSHHHHHH | soluble |
| MSLKKRYDLSYNFNVHEVPRAALEERFDPKSPTKRSIAIVFEEIKNWISDIPYVISLSYTDAQDKSKKIMNVTTDSLTKVLQADLPGSYNLEYIESKFCPGEIVGKSNVLVTMPVAPTMEVKSFPILDQCVGQVGLNFELSFTGAPPYYYNTKIYKLENGERKLYDAKRYTSEGTRNRFSYSPPKEGNYEIVFDTVSNKLFTEPIKLEPVKEYTFKTSMRVKPSASLKLHHDLKLCLGDHSSVPVALKGQGPFTLTYDIIETFSSKRKTFEIKEIKTNEYVIKTPVFTTGGDYILSLVSIKDSTGCVVGLSQPDAKIQVRRDEGHHHHHH | soluble |
| MSLKLFITGIGSGLGKALVEEGIKRGYEVYALSRHLPEEFKEKIHFVKCDLLKVEEVQGCLFKLLSGVKELELAILNAGILGKFSDMKDISLHEIDEVMKVNLWSNKVIIDTLMELGIKVKTLIGISSGAARNCNRGWNAYSLSKAGLNCLLKLYSWELPETKVISLAPGLVLTPMLKEVMSQNEEKYPSIKRIKNAPKLTPEKTAEFIFSILPKLESVESGSFVDVREGHHHHHH | soluble |
| MSLKLLIFEYATASGIDDPEIFLEGRSMLEALLTDFRDFDVEFLLSERFADMDIGAGFRPSIIGDLDEWLQENLEGFDACIFIAAEEGMELYRLTRIVEESGVLLLGSSGDAVRTCSDKRLTYRALDGRVPLIGTYEPEEIVDVPSRLIVKPADGVACQGIRILEPGDEPDLSGDMIIQDFIEGESVSVSLLSNGEKALPLSLNRQDIIMAGSELEYNGGSAPVDHEMREDAFTVARRAVESITGLRGYVGVDLILADEPYVVEINSRITTPYIGLRRVTEANLGHLILESVLGRLPSGVKFNGTASFRKGIDGMVVEVTEGFRGYEGHHHHHH | soluble |
| MSLKLSDPGPIFYGHRRVGHNGRYFHCLKFRTMAMNGDEMLRQYLAANPEAAEEWRATRKLKNDPRVTAVGAVLRKLSLDELPQLLNIIRGEMSVVGPRPVVDEELSYYENAAAYYLSTRPGLTGLWQISGRNDVSYKTRVAFDTQYVQNWSMRQDVFIIVKTIPAVCMSRGSYEGHHHHHH | soluble |
| MSLKLTIGVSYPTANSPFWNAYTRFIDEGSHQLGVYINAVSAEEDEQKQLSDVETLINQGIDGLIVTPQSTSIAPTLLRIATQANIPVVVVDRYPGYAPGQNKNADYVAFLGPNNEKAGSGIAEALMAGGGSKFLALGGMPGNSVAQGRKAGLESALTAVGHRLVQFQYAGDSEDKGLAAAENMLQAHPAGDANAIWCFNDKLCQGAIKAVYNANREKEFIFGGMDLTPQAIAAIENGLYTVSLGAHWLEGGFGLAILYRKIHGQDPAERMVKLDLLKVDKSNVAKFKARYEGHHHHHH | not soluble |
| MSLKNPLKLCGIEFTEYATPDSDFMEKAFYGFGFSKTKKMKGRDVEYFNQNDIHFLLNKEKAGFSKEFAKSHGPAICSMGWRVEDANFAFNEAVKRGAKSAENEANKLPYPAIFGIGDSLIYFIENFAKTGTNKGLIYDTDFEDIAEPVIVEDKGFLAVDHLTNNVYQGTMHKWADFYKDVFGFTEVRYFDIKGVKTALISYALASPCGKFCIPINEGKGSKDNQIDEYLNEYNGPGVQHLAFITDDLVGSLDKLDRSIVDTLNIVPEYYDEIFDRVPWVKEDKARIKEHQILVDSQSEDSYLLQIFTKNLFGPIFIEMIQRVDDQGFGEGNFSTLFKSIELNQMERGEGHHHHHH | soluble |
| MSLKPKRILLVNEQRSFQVMMKAMLINIGISRITYANSAEEARRRCQKETFDIYLLDYELGVGENGRQLLESLRDQKLIPPQSVVIMVSGDSSRAMVLSALEAEPDEYLMKPFSQEQFSFRLKRALARRQALESVFSALAKEDLPTLLAACAERADAVPRFANFCRCLQADTQLKLGQAKEARSLMRQLLAGQENSWARLTLGKACHTLGLNEEAVSHLQATLKNTPLMVEAHLWLAESQLALGNDEQAQQELKRAVDISPQSVQLSRRLAEVCLLRHDYAQAKDVLLSLIDLSRNSIHRTPHYLGAYIQSLTLYALNSNEGHHHHHH | not soluble |
| MSLKPSDFVKYLQRMIALTDTGLTFTKDPFDRERYEDLRSLLSEMLNQVSDLDAEEVAEVLKPTSAYATPLMDVRAWIVEDEKICLVRRQGEDSWALPGGFGEVGYSPTENILKEIEEETGFKAKVERLLAVFDTNRFQLQSKQYAKFVFECKLLDGQFQENQEIAALQFFTIDQLPNLSEKRITKEQIEILWQVYQGQREQYLDEGGSHHHHHH | soluble |
| MSLKQAAENTLNLNPVIGIRGKDLLTSARMVLLQAVRQPLHSARHVAHFSLELKNVLLGQSELRPGDDDRRFSDPAWSQNPLYKRYMQTYLAWRKELHSWISHSDLSPQDISRGQFVINLLTEAMSPTNSLSNPAAVKRFFETGGKSLLDGLGHLAKDLVNNGGMPSQVDMDAFEVGKNLATTEGAVVFRNDVLELIQYRPITESVHERPLLVVPPQINKFYVFDLSPDKSLARFCLRNGVQTFIVSWRNPTKSQREWGLTTYIEALKEAIEVVLSITGSKDLNLLGACSGGITTATLVGHYVASGEKKVNAFTQLVSVLDFELNTQVALFADEKTLEAAKRRSYQSGVLEGKDMAKVFAWMRPNDLIWNYWVNNYLLGNQPPAFDILYWNNDTTRLPAALHGEFVELFKSNPLNRPGALEVSGTPIDLKQVTCDFYCVAGLNDHITPWESCYKSARLLGGKCEFILSNSGHIQSILNPPGNPKARFMTNPELPAEPKAWLEQAGKHADSWWLHWQQWLAERSGKTRKAPASLGNKTYPAGEAAPGTYVHEREGHHHHHH | not soluble |
